The results in this text go back to the supplement of paper PMC9732359.

This data set is described as follows: protein stability index of a GFP-peptide fusion (yeast GPS) (PSI 1-4); higher = more stable; sorted into four equal gates, so the index is relative within each strain. The procedure, abridged: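 Each library plasmid carries Cherry plus GFP with a tiled 17-residue yeast protein peptide fused downstream, and the pooled library was carried in yeast. Mid-log cultures in leucine-free medium were sorted into four equal gates by GFP/Cherry ratio. Reads from Illumina sequencing of PCR-amplified plasmids from each gate were assigned to strains by barcodes. Per peptide, the protein stability index was computed as the summed products of gate read frequency and gate number.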

± gives the uncertainty stated by the source.

VANSTKAAFIRVNGSEF [RPT3] displayed a protein stability index (doa10∆) of 1.92 ± 0.05, a protein stability index (pdr5∆) of 1.69 ± 0.044, a protein stability index (san1∆) of 1.66 ± 0.082 and a protein stability index (ubr1∆) of 1.44 ± 0.034.

As for VANYSAMANAPGNNIPY [GAL11], the protein stability index was found to be 2.88 ± 0.16 (doa10∆), 3.25 ± 0.18 (pdr5∆), 2.7 ± 0.17 (san1∆) and 2.76 ± 0.16 (ubr1∆).

VAPVSEIVNMVPSHVPQ [SIR2]: the protein stability index reads like this: (doa10∆) 3.01 ± 0.09; (pdr5∆) 2.96 ± 0.069; (san1∆) 2.66 ± 0.06; (ubr1∆) 2.87 ± 0.046.

VARFLHFNGIRRLDALV [ITC1]: the protein stability index runs as follows: (doa10∆) 3.44 ± 0.16; (pdr5∆) 3.45 ± 0.11; (san1∆) 3.41 ± 0.058; (ubr1∆) 3.35 ± 0.08.

For VASSTNFTSPTAVVNNA [SWI1], the protein stability index was found to be 2.64 ± 0.094 (doa10∆), 2.56 ± 0.12 (pdr5∆), 2.48 ± 0.14 (san1∆) and 2.91 ± 0.069 (ubr1∆).

For VCLMQISTRERDYLVDT [RRP6], the protein stability index was 3.3 ± 0.22 (doa10∆), 3.4 ± 0.16 (pdr5∆), 3.49 ± 0.088 (san1∆) and 2.99 ± 0.089 (ubr1∆).

On to VCQVTKFGLLLQVSAQE [ECM29], for which the protein stability index by setting is: (doa10∆) 2.15 ± 0.061; (pdr5∆) 2.15 ± 0.044; (san1∆) 2.62 ± 0.067; (ubr1∆) 1.9 ± 0.04.

As for VDAGIALNSMCASIPIA [RRP46], the protein stability index (doa10∆) amounted to 1.65 ± 0.12, the protein stability index (pdr5∆) turned out to be 1.63 ± 0.12, the protein stability index (san1∆) came to 1.71 ± 0.15 and the protein stability index (ubr1∆) is 1.66 ± 0.16.

As for VDEELGPSIYKTDPAGY [SCL1], the protein stability index by setting is: (doa10∆) 3.12 ± 0.084; (pdr5∆) 3.35 ± 0.074; (san1∆) 3.29 ± 0.072; (ubr1∆) 3.27 ± 0.083.

For the sequence VDFDGLDIKRVGSENVE [SNF12], the protein stability index is, setting by setting: (doa10∆) 3.3 ± 0.19; (pdr5∆) 3.32 ± 0.14; (san1∆) 3.49 ± 0.24; (ubr1∆) 3.35 ± 0.1.

VDFSKYNTNFNLLLREL [SRP72] displayed a protein stability index (doa10∆) of 2.99 ± 0.1, a protein stability index (pdr5∆) of 3.24 ± 0.12, a protein stability index (san1∆) of 2.97 ± 0.1 and a protein stability index (ubr1∆) of 3.31 ± 0.056.

Take VDGEAVGDEFKGYVFKI [RPS6A]: the protein stability index (pdr5∆) was 3.79 ± 0.18.

In the case of VDIKGEDLHEKNDSAEV [NUT1], the protein stability index runs as follows: (doa10∆) 3.54 ± 0.12; (pdr5∆) 3.37 ± 0.2; (san1∆) 2.93 ± 0.19; (ubr1∆) 3.55 ± 0.12.

Sequence VDIYSLPLISTDVLEIS [YMR129W/POM152] showed a protein stability index (doa10∆) of 2.06 ± 0.052, a protein stability index (pdr5∆) of 2.58 ± 0.049, a protein stability index (san1∆) of 2.43 ± 0.045 and a protein stability index (ubr1∆) of 2.44 ± 0.044.

On to VDIYTHFTSPIRRYCDV [DIS3], for which the protein stability index runs as follows: (doa10∆) 1.61 ± 0.043; (pdr5∆) 1.91 ± 0.055; (san1∆) 1.94 ± 0.073; (ubr1∆) 2.19 ± 0.04.

In the case of VDKNFDKLELYVLRNVL [MTW1], the protein stability index is, setting by setting: (doa10∆) 3.01 ± 0.096; (pdr5∆) 2.43 ± 0.078; (san1∆) 2.81 ± 0.12; (ubr1∆) 3.05 ± 0.071.

For the sequence VDLEEVMDTIQEQITLY [SSN8], the protein stability index by setting is: (doa10∆) 3.33 ± 0.13; (pdr5∆) 3.18 ± 0.087; (san1∆) 3.16 ± 0.079; (ubr1∆) 3.32 ± 0.08.

In the case of VDPARRQILFKYPMYMQ [MED6], the protein stability index came out at 1.54 ± 0.069 (doa10∆), 1.78 ± 0.076 (pdr5∆), 1.95 ± 0.17 (san1∆) and 1.47 ± 0.051 (ubr1∆).

Regarding VDPASAPNHSPEIDNLD [RRP6], the protein stability index reads like this: (doa10∆) 3.1 ± 0.11; (pdr5∆) 2.98 ± 0.074; (san1∆) 3.25 ± 0.072; (ubr1∆) 3.16 ± 0.059.

Regarding VDPLKSLEDKILRMGAF [RRI1], the protein stability index worked out at 3.19 ± 0.12 (doa10∆), 3.04 ± 0.14 (pdr5∆), 2.88 ± 0.12 (san1∆) and 2.94 ± 0.094 (ubr1∆).

For VDQNPLTMHKIIQLILW [SRB8], the protein stability index is, setting by setting: (doa10∆) 1.47 ± 0.085; (pdr5∆) 1.6 ± 0.086; (san1∆) 1.23 ± 0.17; (ubr1∆) 1.36 ± 0.081.

VDSNLPDDEKFTDENTI [RPC40] returned a protein stability index (doa10∆) of 2.35 ± 0.15, a protein stability index (pdr5∆) of 3.46 ± 0.21 and a protein stability index (san1∆) of 2.02 ± 0.19.

Sequence VDSQGLPYNWDALEMQW [ARP7] registered a protein stability index (doa10∆) of 1.7 ± 0.066, a protein stability index (pdr5∆) of 2.35 ± 0.07, a protein stability index (san1∆) of 2.64 ± 0.1 and a protein stability index (ubr1∆) of 1.91 ± 0.073.

As to VDVKPKSPKERELEERA [RPC25], the protein stability index is 3.07 ± 0.17 (pdr5∆) and 3.31 ± 0.13 (ubr1∆).

As for VEAIRRSNQYQRGKMHG [NUT2], the protein stability index (doa10∆) is 2.85 ± 0.085, the protein stability index (pdr5∆) came out at 2.64 ± 0.076, the protein stability index (san1∆) stood at 2.83 ± 0.11 and the protein stability index (ubr1∆) was 2.6 ± 0.099.
